Patent US20250276075A1, “METHODS OF TREATING AXL-EXPRESSING CANCERS WITH ANTI-AXL ANTIBODIES, ANTIBODY FRAGMENTS AND THEIR IMMUNOCONJUGATES” (BIOATLA, INC., priority 2020, published 2025)
Entries after “also recorded” stand apart in the source; their conditions may differ.

Legend:
[1] = system: advanced sarcoma; assay: Phase 1 clinical study of BA3011: antitumor activity (RECIST v1.1, change in sum of target lesions); format: in vivo, human
From the text: The primary efficacy endpoint in Phase 2 is objective response (OR) per RECIST v1.1 using blinded independent central review (BICR). Objective response rate (ORR) is defined as the proportion of subjects with a best overall response of confirmed CR or confirmed PR that occur prior to the initiation of subsequent anticancer treatment. ORR will be estimated with a 95% CI using the exact probability method for each sarcoma subtype and overall in each of the 2 treatment groups (BA3011 alone and in combination with nivolumab). Other efficacy endpoints are duration of response (DOR), progression-free survival (PFS), best overall response (OR), disease control rate (DCR), time to response (TTR), progression-free rate (PFR) at 12 weeks, overall survival (OS), and percent change from baseline in target lesion sum of diameters. All efficacy endpoints except PFS and OS will be summarized primarily based on the full analysis set (FAS). PFS and OS will be summarized based on the As-Treated Population. Time-to-event data will be summarized using Kaplan-Meier estimates. Response rates and their confidence intervals will be estimated using the exact probability method. Graphical analyses will include spider and waterfall plots for the change and best change from baseline in tumor size, respectively.
Study BA3011-001 was an ongoing, multi-center, open-label, Phase 1/2 first-in-human trial of BA3011.
(§1) In Phase 1 (NCT03425279), BA3011 was administered once (Q3W) or twice (2Q3W) every 3 weeks via intravenous (IV) infusion.

[2] = target: T1, rat Axl (Rattus norvegicus, UniProt A0A0G2K2H0); assay: BA3011 binding to rat Axl
T1 sequence (A0A0G2K2H0 21-879): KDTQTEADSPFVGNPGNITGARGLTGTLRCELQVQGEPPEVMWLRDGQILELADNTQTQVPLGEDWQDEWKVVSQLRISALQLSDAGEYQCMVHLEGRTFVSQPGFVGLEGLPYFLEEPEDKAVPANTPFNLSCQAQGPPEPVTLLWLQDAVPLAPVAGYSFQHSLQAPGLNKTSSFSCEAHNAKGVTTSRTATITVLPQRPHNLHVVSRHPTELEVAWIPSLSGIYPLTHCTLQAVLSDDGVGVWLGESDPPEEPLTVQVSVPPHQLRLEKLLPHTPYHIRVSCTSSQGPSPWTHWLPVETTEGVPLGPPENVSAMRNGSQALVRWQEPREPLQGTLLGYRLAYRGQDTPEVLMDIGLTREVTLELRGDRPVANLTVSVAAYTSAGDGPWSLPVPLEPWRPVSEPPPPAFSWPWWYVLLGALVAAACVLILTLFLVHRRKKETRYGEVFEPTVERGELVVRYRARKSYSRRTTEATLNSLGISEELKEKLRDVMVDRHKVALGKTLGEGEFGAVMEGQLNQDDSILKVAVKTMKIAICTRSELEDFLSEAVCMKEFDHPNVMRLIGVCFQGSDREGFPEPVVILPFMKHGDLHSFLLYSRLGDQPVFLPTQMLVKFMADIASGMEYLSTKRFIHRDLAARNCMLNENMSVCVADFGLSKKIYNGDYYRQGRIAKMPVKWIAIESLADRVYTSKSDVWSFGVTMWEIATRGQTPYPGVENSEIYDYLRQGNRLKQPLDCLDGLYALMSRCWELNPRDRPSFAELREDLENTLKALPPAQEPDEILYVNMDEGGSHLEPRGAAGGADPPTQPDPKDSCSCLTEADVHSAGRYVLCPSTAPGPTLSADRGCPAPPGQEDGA

[3] = target: T2, human Axl (Homo sapiens, UniProt P30530); assay: BA3011 binding to human Axl in TME and normal tissue conditions
T2 sequence (P30530 26-894): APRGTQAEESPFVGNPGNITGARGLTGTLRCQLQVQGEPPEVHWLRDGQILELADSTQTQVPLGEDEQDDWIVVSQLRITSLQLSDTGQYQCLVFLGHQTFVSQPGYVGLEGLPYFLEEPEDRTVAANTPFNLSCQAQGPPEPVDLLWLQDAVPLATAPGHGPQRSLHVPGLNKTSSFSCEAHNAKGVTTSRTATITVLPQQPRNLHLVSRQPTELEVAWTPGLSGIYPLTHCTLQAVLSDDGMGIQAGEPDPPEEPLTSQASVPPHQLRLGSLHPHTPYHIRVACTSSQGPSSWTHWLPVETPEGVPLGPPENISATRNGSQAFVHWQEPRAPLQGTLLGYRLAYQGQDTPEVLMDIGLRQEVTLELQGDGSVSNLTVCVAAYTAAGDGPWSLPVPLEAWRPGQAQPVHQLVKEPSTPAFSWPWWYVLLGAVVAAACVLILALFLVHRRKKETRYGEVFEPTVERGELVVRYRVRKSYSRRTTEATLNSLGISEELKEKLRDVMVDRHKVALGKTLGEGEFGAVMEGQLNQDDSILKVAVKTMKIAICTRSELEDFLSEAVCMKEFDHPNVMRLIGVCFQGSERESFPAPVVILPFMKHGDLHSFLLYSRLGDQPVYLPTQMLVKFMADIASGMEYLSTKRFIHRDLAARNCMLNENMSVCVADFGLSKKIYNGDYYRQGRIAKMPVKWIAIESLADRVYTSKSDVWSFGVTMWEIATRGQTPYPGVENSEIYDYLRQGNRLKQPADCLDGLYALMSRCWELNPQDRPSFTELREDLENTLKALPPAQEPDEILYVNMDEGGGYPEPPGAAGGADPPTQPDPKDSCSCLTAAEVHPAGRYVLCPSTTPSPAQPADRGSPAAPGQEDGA

[4] = system: cynomolgus monkey Axl; assay: BA3011 binding to cynomolgus monkey Axl
[5] = Phase 1 clinical study of BA3011: pharmacokinetics; format: in vivo, human
From the text: • PK of BA3011: plasma concentrations of ADC, total antibody and MMAE, and PK parameters, including Cmax and AUC. • Efficacy (expansion cohorts only): ORR, disease control rate (DCR), time to response (TTR), duration of response (DOR), best objective response (OR), progression-free survival (PFS), overall survival (OS), and percent change from baseline in tumor size. • Immunogenicity of BA3011: the number and percentage of patients who develop detectable anti-drug antibodies (ADAs).
Sample collection timepoints for BA3011 PK, PD, and immunogenicity testing are presented in Table 18 (Phase 1) and Table 19 (Phase 2).
as §1

[6] = conditions mimicking the TME (pH 6.0-7.0)
[7] = conditions mimicking the normal tissue environment (pH 7.3-7.4)

B1: Mecbotamab vedotin (conjugate, chains of the INN, looked up)
VH: EVQLVQSGAEVKKPGATVKISCKVSGYSFWGATMNWIRQPPGKGLEWIGLIKPSNGGTSYNQKFKGRVTISADKSISTAYLQWSSLKASDTAMYYCAHGHYESYEAMDYWGQGTLVTVSS
VL: DIQMTQSPSSLSASVGDRVTITCKASQDVVSAVAWYQQKPGQAPRLLIYWQDTRHTGVPSRFSGSGSGTEFTLTISSLQPDDFATYYCQEHFSPPLTFGQGTKVEIK
modifications: MC-vc-PAB-MMAE conjugate
[1]; Phase 1
  antitumor activity in sarcoma patients: correlated with higher levels of AXL tumor membrane expression; also recorded: evidence of antitumor activity was observed
[1]; of 7 treatment refractory sarcoma patients with baseline TmPS≥70 dosed at 1.8 mg/kg (Q3w or 2Q3w)
  confirmed partial responses: 4
[1]; sarcoma patients, FIG. 24
  duration of response to therapy: Prolonged response to therapy
[2]
  binding to rat Axl: not mouse or rat Axl; also recorded: lacked binding to the rodent enzyme
[3]; [6]
  binding to human Axl: high affinity and specificity
[3]; [7]
  binding to human Axl: reduced binding
[4]
  cross-reactivity to the cynomolgus Axl protein: cross-reacted
[4]; [6]
  binding to cynomolgus monkey Axl: high affinity and specificity
[4]; [7]
  binding to cynomolgus monkey Axl: reduced binding
[5]
  PK profile: approximately dose proportional
  half-life: approximately 4 days
